Data as given in patent publication US20140072613A1, “Compositions and Methods for Treating Cutaneous Scarring” (priority 2012, published 2014).

Columns and labels:
Experiment in all cases: biochemical
Assay type in all cases: biochemical
[1] = target: 266 human kinases (Homo sapiens, UniProt O43293); conditions: ZIPK(h); 100 μM
How it was run: (§1)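 Radiometric filter-binding format: a positively charged substrate takes up radiolabelled phosphate from ATP unless the kinase is inhibited, then is captured on a negatively charged filter membrane. Counts from scintillation are expressed relative to a 100% activity control.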

[2] = target: 266 human kinases (Homo sapiens, UniProt P08581, D1228N); conditions: Met(D1246N)(h); 100 μM
How it was run: as §1

[3] = target: 266 human kinases (Homo sapiens, UniProt P08631); conditions: 100 μM
How it was run: as §1

[4] = target: T1, 266 human kinases (Homo sapiens, UniProt P36896); conditions: ALK4(h); 100 μM
T1 sequence (P36896 24-505): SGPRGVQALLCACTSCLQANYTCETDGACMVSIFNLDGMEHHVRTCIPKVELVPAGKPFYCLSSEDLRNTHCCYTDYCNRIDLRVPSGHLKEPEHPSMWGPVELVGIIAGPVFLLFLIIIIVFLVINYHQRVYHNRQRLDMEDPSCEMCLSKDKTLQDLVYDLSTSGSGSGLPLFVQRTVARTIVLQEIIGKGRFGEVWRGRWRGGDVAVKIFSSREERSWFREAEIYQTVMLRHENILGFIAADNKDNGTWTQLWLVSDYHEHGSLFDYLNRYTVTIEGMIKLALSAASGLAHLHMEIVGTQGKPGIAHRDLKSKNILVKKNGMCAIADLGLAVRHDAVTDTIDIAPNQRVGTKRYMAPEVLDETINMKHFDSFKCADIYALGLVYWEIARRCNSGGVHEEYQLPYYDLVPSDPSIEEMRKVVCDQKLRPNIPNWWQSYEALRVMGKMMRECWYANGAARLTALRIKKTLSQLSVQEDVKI
How it was run: as §1

[5] = target: T2, 266 human kinases (Homo sapiens, UniProt P42680); conditions: Tec(h)activated; 100 μM
T2 sequence (P42680 1-631): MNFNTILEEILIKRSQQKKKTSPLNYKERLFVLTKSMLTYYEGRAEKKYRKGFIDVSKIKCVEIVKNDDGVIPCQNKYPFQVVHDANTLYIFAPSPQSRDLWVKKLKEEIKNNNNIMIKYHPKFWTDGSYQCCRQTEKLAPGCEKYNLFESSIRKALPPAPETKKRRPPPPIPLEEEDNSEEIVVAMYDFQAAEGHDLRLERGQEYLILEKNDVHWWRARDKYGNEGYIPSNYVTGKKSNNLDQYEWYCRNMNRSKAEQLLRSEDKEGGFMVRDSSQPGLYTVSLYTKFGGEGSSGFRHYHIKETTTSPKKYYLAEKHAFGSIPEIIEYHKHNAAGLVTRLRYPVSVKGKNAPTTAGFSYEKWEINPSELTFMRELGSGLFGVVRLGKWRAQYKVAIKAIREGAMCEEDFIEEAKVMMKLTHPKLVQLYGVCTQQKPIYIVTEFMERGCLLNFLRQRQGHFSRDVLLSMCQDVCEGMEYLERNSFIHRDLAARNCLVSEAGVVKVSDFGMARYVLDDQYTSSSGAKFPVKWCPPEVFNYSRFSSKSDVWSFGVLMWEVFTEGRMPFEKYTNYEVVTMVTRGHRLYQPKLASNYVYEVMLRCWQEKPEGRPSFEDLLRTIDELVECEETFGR
How it was run: as §1

[6] = target: T3, 266 human kinases (Homo sapiens, UniProt Q05513); conditions: PKCζ(h); 100 μM
T3 sequence (Q05513 1-592): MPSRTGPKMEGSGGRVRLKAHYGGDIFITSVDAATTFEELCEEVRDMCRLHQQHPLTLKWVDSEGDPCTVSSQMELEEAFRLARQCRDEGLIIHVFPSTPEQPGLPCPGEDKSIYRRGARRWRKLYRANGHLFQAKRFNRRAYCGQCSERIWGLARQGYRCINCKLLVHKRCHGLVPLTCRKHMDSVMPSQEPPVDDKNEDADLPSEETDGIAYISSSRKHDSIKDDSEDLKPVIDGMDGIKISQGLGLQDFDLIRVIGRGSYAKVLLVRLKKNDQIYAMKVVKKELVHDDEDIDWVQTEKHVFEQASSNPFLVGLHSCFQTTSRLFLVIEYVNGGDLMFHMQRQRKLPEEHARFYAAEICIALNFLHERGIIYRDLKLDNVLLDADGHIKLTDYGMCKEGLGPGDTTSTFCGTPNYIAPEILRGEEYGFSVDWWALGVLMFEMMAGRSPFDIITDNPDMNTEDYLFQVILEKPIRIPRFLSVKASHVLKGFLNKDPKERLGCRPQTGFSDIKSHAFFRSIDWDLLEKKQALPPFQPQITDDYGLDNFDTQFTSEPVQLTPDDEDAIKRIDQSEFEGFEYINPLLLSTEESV
How it was run: as §1

[7] = target: T4, 266 human kinases (Homo sapiens, UniProt Q6PHR2); conditions: ULK3(h); 100 μM
T4 sequence (Q6PHR2 1-472): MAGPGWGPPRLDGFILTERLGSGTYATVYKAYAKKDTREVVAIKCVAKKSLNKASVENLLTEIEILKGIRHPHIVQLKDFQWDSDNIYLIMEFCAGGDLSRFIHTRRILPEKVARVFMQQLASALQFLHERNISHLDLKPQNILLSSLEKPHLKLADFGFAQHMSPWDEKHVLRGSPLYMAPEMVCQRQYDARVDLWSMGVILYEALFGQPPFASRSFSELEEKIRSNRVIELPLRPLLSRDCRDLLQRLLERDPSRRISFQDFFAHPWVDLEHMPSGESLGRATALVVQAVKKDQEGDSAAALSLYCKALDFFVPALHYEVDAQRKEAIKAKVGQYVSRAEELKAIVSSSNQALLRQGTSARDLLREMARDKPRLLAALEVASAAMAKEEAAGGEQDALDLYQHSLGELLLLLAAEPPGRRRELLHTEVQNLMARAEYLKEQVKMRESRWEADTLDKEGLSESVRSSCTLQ
How it was run: as §1

[8] = target: 266 human kinases (Homo sapiens, UniProt Q96SB4); conditions: SRPK1(h); 100 μM
How it was run: as §1

Chain of 266 human kinases (Homo sapiens, UniProt P08631) (P08631 whole entry): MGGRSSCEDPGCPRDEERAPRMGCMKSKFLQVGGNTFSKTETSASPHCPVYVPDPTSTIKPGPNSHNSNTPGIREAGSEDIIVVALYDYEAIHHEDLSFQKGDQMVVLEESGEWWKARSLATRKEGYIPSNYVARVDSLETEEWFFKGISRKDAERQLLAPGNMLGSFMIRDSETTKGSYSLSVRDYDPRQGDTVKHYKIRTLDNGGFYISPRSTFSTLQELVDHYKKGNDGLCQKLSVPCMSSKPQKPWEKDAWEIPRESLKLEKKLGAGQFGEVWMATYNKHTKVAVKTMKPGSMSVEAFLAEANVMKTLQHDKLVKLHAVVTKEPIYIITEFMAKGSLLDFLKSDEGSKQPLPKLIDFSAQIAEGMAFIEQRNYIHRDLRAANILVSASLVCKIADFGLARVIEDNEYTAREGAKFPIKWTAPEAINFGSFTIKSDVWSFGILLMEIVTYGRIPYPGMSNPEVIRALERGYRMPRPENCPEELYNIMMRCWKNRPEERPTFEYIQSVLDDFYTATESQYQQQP
Chain of 266 human kinases (Homo sapiens, UniProt O43293) (O43293 whole entry): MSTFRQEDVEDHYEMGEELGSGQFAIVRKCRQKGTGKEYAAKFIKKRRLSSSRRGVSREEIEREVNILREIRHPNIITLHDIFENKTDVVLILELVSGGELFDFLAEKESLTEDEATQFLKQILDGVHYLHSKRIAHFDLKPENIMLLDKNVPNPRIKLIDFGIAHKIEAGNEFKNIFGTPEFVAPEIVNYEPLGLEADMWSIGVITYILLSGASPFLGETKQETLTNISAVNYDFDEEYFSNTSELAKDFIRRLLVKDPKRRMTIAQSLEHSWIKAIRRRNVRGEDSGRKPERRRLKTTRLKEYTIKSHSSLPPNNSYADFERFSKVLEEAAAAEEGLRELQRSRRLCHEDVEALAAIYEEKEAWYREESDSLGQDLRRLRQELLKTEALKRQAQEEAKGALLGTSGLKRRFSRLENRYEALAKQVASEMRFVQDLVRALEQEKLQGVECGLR
Chain of 266 human kinases (Homo sapiens, UniProt Q96SB4) (Q96SB4 whole entry): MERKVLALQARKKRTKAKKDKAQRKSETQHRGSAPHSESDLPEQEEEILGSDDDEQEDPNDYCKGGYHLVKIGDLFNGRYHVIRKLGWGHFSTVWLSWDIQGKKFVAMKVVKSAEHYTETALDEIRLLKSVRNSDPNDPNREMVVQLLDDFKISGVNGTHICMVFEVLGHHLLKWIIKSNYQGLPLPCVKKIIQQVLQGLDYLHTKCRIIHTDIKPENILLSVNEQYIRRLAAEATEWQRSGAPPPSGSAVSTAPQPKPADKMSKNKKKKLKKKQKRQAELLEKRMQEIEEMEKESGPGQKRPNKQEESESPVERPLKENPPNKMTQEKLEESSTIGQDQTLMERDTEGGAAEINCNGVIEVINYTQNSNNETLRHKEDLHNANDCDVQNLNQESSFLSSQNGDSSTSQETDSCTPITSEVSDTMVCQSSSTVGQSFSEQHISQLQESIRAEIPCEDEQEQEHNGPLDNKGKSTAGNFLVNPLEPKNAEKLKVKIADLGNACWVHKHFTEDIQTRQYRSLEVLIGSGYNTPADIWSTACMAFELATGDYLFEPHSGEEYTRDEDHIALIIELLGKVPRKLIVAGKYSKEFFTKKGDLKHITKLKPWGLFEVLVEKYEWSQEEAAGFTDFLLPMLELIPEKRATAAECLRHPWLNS

| Sequence | % activity [1] | % activity [2] | % activity ([3]; Hck(h) activated) | % activity ([3]; Hck(h)) | % activity [4] | % activity [5] | % activity [6] | % activity [7] | % activity [8] |
| --- | --- | --- | --- | --- | --- | --- | --- | --- | --- |
| HRRIKAWLKKIKALARQLGVAA (mammal) [MMI-0500] | 1% | 90% | 67% | 78% | 81% | 33% | 7% | 177% | 80% |
| YARAAARQARAKALNRQLGVA (mammal) [MMI-0200] | 67% | 149% | 100% |  | 152% | 77% | 98% | 164% | 93% |
